Results: the DeepSol protein solubility set

Test: soluble on expression in E. coli; label from the status in PepcDB or PDB records

Row | Sequence | soluble on expression in E. coli
1 | MGSDKIHHHHHHMIKNFVLDTNVLLYDPQAIFKFEENNIIIPITVIEEIDRFKKDMNETGRNARQLSRYLDEMRATGSLANGIALETGGTLRVEMYEEKFMKVLPPELREERGDNRILAVALRVKEQDEATPVIFVTKDTNLRIKSDALGLKAEDYESDKVDIEELYPGFTELEVSAEMVDRFHGQGWVDLTGYDLHPNQFVTLRDAANPSHTALGKYRADQKRITPIAKNGKDGVWSIHPRNREQAFAFDALLDDSIKLVTLVGKAGTGKTLLAIAAGLHKTAEENVYNRLLVSRPVFPMGRDLGFLPGDIEEKLTPWMQPIFDNVELLLSGHEAEKRHSKGYKELMAMGIMDIEPLTYIRGRSIPLQFMIVDEAQNLTPHEIKTIITRAGEGTKIVLTGDPYQIDNPYVDASSNGLTYVVERFKGVPIAGHVTMTKGERSELAELAANLL | not soluble
2 | QKLVQLILDEIVEGGAKVEWTDIAGQDVAKQALQEMVILPSVRPELFTGLRAPAKGLLLFGPPGNGKTLLARAVATECSATFLNISAASLTSKYVGDGEKLVRALFAVARHMQPSIIFIDEVDSLLSERSSSEHEASRRLKTEFLVEFDGLPGNPDGDRIVVLAATNRPQELDEAALRRFTKRVYVSLPDEQTRELLLNRLLQKQGSPLDTEALRRLAKITDGYSGSDLTALAKDAALEPIRELNVEQVKCLDISAMRAITEQDFHSSLKRIRRSVAPQSLNSYEKWSQDYGDITIK | soluble
3 | MRERTEARRRRIEEVLRRRQPDLTVLLENVHKPHNLSAILRTCDAVGVLEAHAVNPTGGVPTFNETSGGSHKWVYLRVHPDLHEAFRFLKERGFTVYATALREDARDFREVDYTKPTAVLFGAEKWGVSEEALALADGAIKIPMLGMVQSLNVSVAAAVILFEAQRQRLKAGLYDRPRLDPELYQKVLADWLRK | soluble
4 | MYGEGDFYTIKSKRDYEFYLEADRLALGKNCKKPRLIGDDIWKFQRLLRQAEYYSNCQNSLLHKLYLKYILFRFHRMSIRLGFSIPINVFGPGLCIAHRGTIVVNKGARVGENCRIHACTNIGSGRDNIFLAPKIGNGVYIGPGAKIFGSVEIADNIAIGANSVVNRSFYERGISIAGVPAKKISNKGSDGMVIAATKTVSVPVSQETILEHHHHHH | soluble
5 | MSLTAPLEWKQANFLSISDSHGWLLGHQHSTWPEPNYSGNYGSFASFVIHMRKIADEKGVDLLLIDAGDHHDGSGLVSSSPDSASLAEDIFSMISYDVITIGNHELYHYADALDIYENHERWGGRYVTSNVNITVKREGEWQSVPIGQTHLKFTTKQGYNVTAFGVIFDFKAHDKGITVQKPSKLVHEPWFQEAIRDAPDYFILAGHMPVRGETAEFAPVFDAIRDIHPQVPIFLFGGHTHVRDCVQYDERSIGVVPGKYLETVAFTSSSLPSSSGDDRPLDVARSYQWHTNQTSYTFDTEGHHHHHH | soluble
6 | MRITTKVGDKGSTRLFGGEEVWKDSPIIEANGTLDELTSFIGEAKHYVDEEMKGILEEIQNDIYKIMGEIGSKGKIEGISEERIKWLEGLISRYEEMVNLKSFVLPGGTLESAKLDVCRTIARRAERKVATVLREFGIGKEALVYLNRLSDLLFLLARVIEIEKNKLKEVRS | soluble
7 | MFHCPLCQHAAHARTSRYITDTTKERYHQCQNVNCSATFITYESVQRYIVKPGEVHVVRPHPLPSGQQIMWM | soluble
8 | MAHHHHHHMSSTNPSGCAGLVAASVTTAASTGTTAAATLAARSPTPPSVPASNSNNSGPGAAVASAPARWRIPSFRPQEYLRGYLFGGVGMGVPELQQYVGKVEPMIREMLEHTQQVHSIHSLRSHFQKSDEPGDEEVVLRWPSHLLQFMEFYNTTRALEDPENQDAGVKEAYLGLMRRLYYTEPRRRDCIPTKYLDPRSLLLVRMWWSMDAAQRKQWPLSLMDHKALNVIQIKDRYLCSYVMTAMQAKQYLMRLVARPEMRAMIDQWRRERNDGSTGAGSPQRSKL | soluble
9 | MSLAPAQRAFSDWQVTCNNQNFCVARNTGDHNGLVMTLSRSAGAHTDAVLRIERGGLKSPDASEGEIAPRLLLDGEPLALSGDKWRISPWLLVTDDTATITAFLQMIQEGKAITLRDGNQTISLSDLKAALLFIDAQQKRVGSETAWIKKGDEPPLSVPPAPALKEVVVVNPTPTPLSLEERNDLLDYGNWRMNGLRCSLDPLRREVNVTALTDDKALMMISCEAGAYNTIDLAWIVSRKKPLASRPVRLRLPFNNGQETNELELMNATFDEKSRELVTLAKGRGLSDCGIQARWRFDGQRFRLVRYAAEPTCDNWHGPDAWPTLWITREGHHHHHH | soluble
10 | MSLKICVIGSSGHFRYALEGLDEECSITGIAPGVPEEDLSKLEKAISEMNIKPKKYNNWWEMLEKEKPDILVINTVFSLNGKILLEALERKIHAFVEKPIATTFEDLEKIRSVYQKVRNEVFFTAMFGIRYRPHFLTAKKLVSEGAVGEIRLVNTQKSYKLGQRPDFYKKRETYGGTIPWVGIHAIDWIHWITGKKFLSVYATHSRLHNSGHGELETTALCHFTLENEVFASLSIDYLRPQGAPTHDDDRMRIVGTRGIVEVINERVFLTDEKGHREVPLVEKGQIFEDFLREIRGQGKCMVTPEDSILTTEIALKARLSADTGQIVLIEGHHHHHH | soluble
11 | MSLSDLHTKYMGLTLRSPLVASAGPIQQKVDGVRALADAGVGAIVMYSLFEEQVRHEEARQAEIELEYMDSFAESLSFFPTVASNEGGITERYLAHLEASANAVDIPVIASLNGATNGGWVDTAKRMENAGAAGIECNIYMVPGDLEQSAEEVEDRHVEIVQAVKDAVSVPVAVKLSPFFSALGNMATRLDAAGADALVMFNRFLQPDINVETMQVEPGVWLSSPADARLPLTWIAVLSGRIGASLAASSGVESANDVVKYLLAGADVVMTTSALVRHGAGYATELQKGLESYLQRKEVDLDTLRGTLAVPNDASTAEYERNGYVAALEKAKTTYGEGHHHHHH | not soluble
12 | MRYSSRMPGSVMPGAGAHPRIPQVQTSVANSQILGYLGRALSLEFTAGQHYLAQASLAKFRQEISYAEGFITLANEEFQHANLITDRMVAQGALPAGSVLRPAGSANNIAEALKSCEEREIALIQLYTEATQYCANMGAQEDHALFSRLLEEEQSQLMRVQAWLQDYFQMMANTYQPDRSFV | not soluble
13 | MGIKGDKKATSDQARLARLTLEGNSGNEEDIQFMIKTIIETTGCTQAQAEIALLDTDNNLYGAIDHILDAGDKLDSWTEQKGAKKEKKKPEEGSYNNRGFVARGRGGGTGFVDRGGRGRSNGAPRESRDNNRDNRDNKEGAAPRSTRGGFEKPYVGRGGRGGARGGYSRAVAPSSALEPDAFTADLDENQTKVDTTVTEVQPPVEESVTATVPTSSAPAPISFAAVAAAAHRKEALRKHQAQNPQPAAPPRRSLSPQPPLPSVAPVKEEPAAAPVFFEPETSHQPEKEDGFFQNESSVLAEEQTPNVSTHHDENVQSTPEPNQAWTTQLKTDLGIGLSEAPGLGLSPIPSAAPVQIIPDPGVEFVGTTAPTNIHDYSFGFVEAAPSPQLPSTESSAASISNASENIFNSSRIMPKQVEPERTSIPNGDYNLKSTSPPLSYGQSNRGLSYDTSSASYQPTDRMAPNKFNNSGPLPTQQSAQQHQPQQQQQQAPQQPVQQQQQTPPAQSQPTGHPQQHPHMMFTQQLPYAPYMNNYMNMYNPMPGVRDEQYTAALMQYGMGVDLTSLLPTAPLSQAASAQQVQSGQQRETHGLMDFNKFGSQSSRDQQPQQASNVGPPPGFQATNYMQQPNLSSLFMQQYSPAPHQFTPFMNMMPNVGSSAGGRQLYGQDDERKSYDKMSGSKPAAQQNQHSQYQHNGGNLGKYGMNKPYNWSN | not soluble
14 | MQSSNGEHHQQKQTPYFMNAPCDPALLALAQQTFLGFQPQKNMYQHGFPPMLPHRNLIPSLAAAIPEMDKLMLEEPIEAGSMPYRRATNKNISVSDDSFNNMHRSSSSSQYRRHSAQWETMTDDERESVQRQKRKEEAFKTALCDAFKRSGSCPYGEACRFAHGENELRMPSQPRGKAHPKYKTQLCDKFSNFGQCPYGPRCQFIHKLKKGLPLSEYNRALQEGEISPARDDEITNPDESSSQVEDLSELHHRQHQQQQQYQQRYRRPPFNNFHDMSDSGYSAPRRRLHHQFEHLGSEQQQQQQQQTPAPKIVYPSMQVVNIEMATGDGPKRSDNHHYHHHHHQRRHIPAPPSTGPLSSLIDQADYEASMASGKMFGKPENIRTYGAMIRANEEHVERNQTGVVKKERATVLPKRDLSLIREEDTLLVDGSHLNMTSSAILPAHQIPSTTTTSTSSPVQEQPWYEKIFGKMTMIQEESSMGGEDDDAHEDHYSR | not soluble
